Test results published in IntAct's records for PubMed 29892012.

B1: Isoform 2 of Synaptoporin (Homo sapiens), Q8TBG9-2 (parent)
chain: MDPVSQLASAGTFRVLKEPLAFLRALELLFAIFAFATCGGYSGGLRLSVDCVNKTESNLSIDIAFAYPFRLHQVTFEVPTCEGKERQKLALIGDSSSSAEFFVTVAVFAFLYSLAATVVYIFFQNKYRENNRGPLIDFIVTVVFSFLWLVGSSAWAKGLSDVKVATDPKEVLLLMSACKQPSNKCMAIHSPVMSSLNTSVVFGFLNFILWAGNIWFVFKETGWHSSGQRYLSDPMEKHSSSYNQGGYNQDSYGSSSGYSQQASLGPTSDEFGQQPTGPTSFTNQI
partner: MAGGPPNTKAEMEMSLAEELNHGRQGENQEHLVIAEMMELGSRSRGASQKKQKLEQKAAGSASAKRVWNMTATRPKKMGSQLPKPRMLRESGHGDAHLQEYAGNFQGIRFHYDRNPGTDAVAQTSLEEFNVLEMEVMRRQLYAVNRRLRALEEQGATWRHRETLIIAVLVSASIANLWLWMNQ
B2: E3 ubiquitin-protein ligase DZIP3 (Homo sapiens), Q86Y13 (parent)
chain: MDSLPDEFFVRHPAVEDQRKEETENKLEKSSGQLNKQENDIPTDLVPVNLLLEVKKLLNAINTLPKGVVPHIKKFLQEDFSFQTMQREVAANSQNGEEIVPALTLRFLITQLEAALRNIQAGNYTAHQINIGYYLTLLFLYGVALTERGKKEDYTEAENKFLVMKMMIQENEICENFMSLVYFGRGLLRCAQKRYNGGLLEFHKSLQEIGDKNDHWFDIDPTEDEDLPTTFKDLLNNFIKTTESNIMKQTICSYLDCERSCEADILKNTSYKGFFQLMCSKSCCVYFHKICWKKFKNLKYPGENDQSFSGKKCLKEGCTGDMVRMLQCDVPGIVKILFEVVRKDEYITIENLGASYRKLISLKITDTDIRPKISLKFNTKDEMPIFKLDYNYFYHLLHIIIISGTDIVRQIFDEAMPPPLLKKELLIHKNVLESYYNHLWTNHPLGGSWHLLYPPNKELPQSKQFDLCLLLALIKHLNVFPAPKKGWNMEPPSSDISKSADILRLCKYRDILLSEILMNGLTESQFNSIWKKVSDILLRLGMMQEDIDKVKENPIENISLDYHQLSVYLGIPVPEIIQRMLSCYQQGIALQSITGSQRIEIEELQNEEEELSPPLMEYNINVKSHPEIQFAEINKDGTSIPSESSTESLKDLQEVKSKQRKKKKTKNKKNKDSKEDQVPYVVEKEEQLRKEQANPHSVSRLIKDDASDVQEDSAMEDKFYSLDELHILDMIEQGSAGKVTTDYGETEKERLARQRQLYKLHYQCEDFKRQLRTVTFRWQENQMQIKKKDKIIASLNQQVAFGINKVSKLQRQIHAKDNEIKNLKEQLSMKRSQWEMEKHNLESTMKTYVSKLNAETSRALTAEVYFLQCRRDFGLLHLEQTEKECLNQLARVTHMAASNLESLQLKAAVDSWNAIVADVRNKIAFLRTQYNEQINKVKQGFALSTLPPVQLPPPPPSPEILMQQFLGRPLVKESFFRPILTVPQMPAVCPGVVSATGQPRAPLMTGIAWALPAPVGDAVPPSAGLRSDPSIMNWERITDRLKTAFPQQTRKELTDFLRKLKDAYGKSLSELTFDEIVCKISQFIDPKKSQSQGKSVSNVNCVSPSHSPSQPDAAQPPKPAWRPLTSQGPATWEGASNPDEEEEEEEPCVICHENLSPENLSVLPCAHKFHAQCIRPWLMQQGTCPTCRLHVLLPEEFPGHPSRQLPKI
partner: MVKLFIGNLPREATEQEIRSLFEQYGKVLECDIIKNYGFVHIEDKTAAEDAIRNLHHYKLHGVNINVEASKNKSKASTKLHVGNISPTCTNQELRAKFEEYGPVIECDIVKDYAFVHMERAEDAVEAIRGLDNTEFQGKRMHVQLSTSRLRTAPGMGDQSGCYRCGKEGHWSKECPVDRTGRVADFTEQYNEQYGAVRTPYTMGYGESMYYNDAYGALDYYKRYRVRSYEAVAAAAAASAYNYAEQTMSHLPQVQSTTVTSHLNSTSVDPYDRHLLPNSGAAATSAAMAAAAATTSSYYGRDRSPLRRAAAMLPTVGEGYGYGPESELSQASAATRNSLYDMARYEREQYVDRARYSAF
B3: E3 ubiquitin-protein ligase DZIP3 (Homo sapiens), Q86Y13 (parent)
chain: B2 chain
B4: Abl interactor 2 (Homo sapiens), Q9NYB9 (parent)
chain: MAELQMLLEEEIPGGRRALFDSYTNLERVADYCENNYIQSADKQRALEETKAYTTQSLASVAYLINTLANNVLQMLDIQASQLRRMESSINHISQTVDIHKEKVARREIGILTTNKNTSRTHKIIAPANLERPVRYIRKPIDYTILDDIGHGVKWLLRFKVSTQNMKMGGLPRTTPPTQKPPSPPMSGKGTLGRHSPYRTLEPVRPPVVPNDYVPSPTRNMAPSQQSPVRTASVNQRNRTYSSSGSSGGSHPSSRSSSRENSGSGSVGVPIAVPTPSPPSVFPAPAGSAGTPPLPATSASAPAPLVPATVPSSTAPNAAAGGAPNLADGFTSPTPPVVSSTPPTGHPVQFYSMNRPASRHTPPTIGGSLPYRRPPSITSQTSLQNQMNGGPFYSQNPVSDTPPPPPPVEEPVFDESPPPPPPPEDYEEEEAAVVEYSDPYAEEDPPWAPRSYLEKVVAIYDYTKDKEDELSFQEGAIIYVIKKNDDGWYEGVMNGVTGLFPGNYVESIMHYSE
partner: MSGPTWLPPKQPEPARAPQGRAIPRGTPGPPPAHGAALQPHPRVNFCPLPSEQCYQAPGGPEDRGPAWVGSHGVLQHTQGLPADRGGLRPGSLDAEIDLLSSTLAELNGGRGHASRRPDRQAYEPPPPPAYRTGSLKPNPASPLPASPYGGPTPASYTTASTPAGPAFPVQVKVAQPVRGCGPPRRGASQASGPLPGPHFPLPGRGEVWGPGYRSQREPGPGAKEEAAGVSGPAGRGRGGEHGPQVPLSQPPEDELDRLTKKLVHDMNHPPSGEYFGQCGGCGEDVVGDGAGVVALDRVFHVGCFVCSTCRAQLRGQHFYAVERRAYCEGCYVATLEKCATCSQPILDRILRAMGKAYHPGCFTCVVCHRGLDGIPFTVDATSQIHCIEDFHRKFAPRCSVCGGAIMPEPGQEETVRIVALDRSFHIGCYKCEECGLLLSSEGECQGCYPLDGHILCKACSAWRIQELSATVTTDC
B5: Angio-associated migratory cell protein (Homo sapiens), Q13685 (parent)
chain: MESESESGAAADTPPLETLSFHGDEEIIEVVELDPGPPDPDDLAQEMEDVDFEEEEEEEGNEEGWVLEPQEGVVGSMEGPDDSEVTFALHSASVFCVSLDPKTNTLAVTGGEDDKAFVWRLSDGELLFECAGHKDSVTCAGFSHDSTLVATGDMSGLLKVWQVDTKEEVWSFEAGDLEWMEWHPRAPVLLAGTADGNTWMWKVPNGDCKTFQGPNCPATCGRVLPDGKRAVVGYEDGTIRIWDLKQGSPIHVLKGTEGHQGPLTCVAANQDGSLILTGSVDCQAKLVSATTGKVVGVFRPETVASQPSLGEGEESESNSVESLGFCSVMPLAAVGYLDGTLAIYDLATQTLRHQCQHQSGIVQLLWEAGTAVVYTCSLDGIVRLWDARTGRLLTDYRGHTAEILDFALSKDASLVVTTSGDHKAKVFCVQRPDR
partner: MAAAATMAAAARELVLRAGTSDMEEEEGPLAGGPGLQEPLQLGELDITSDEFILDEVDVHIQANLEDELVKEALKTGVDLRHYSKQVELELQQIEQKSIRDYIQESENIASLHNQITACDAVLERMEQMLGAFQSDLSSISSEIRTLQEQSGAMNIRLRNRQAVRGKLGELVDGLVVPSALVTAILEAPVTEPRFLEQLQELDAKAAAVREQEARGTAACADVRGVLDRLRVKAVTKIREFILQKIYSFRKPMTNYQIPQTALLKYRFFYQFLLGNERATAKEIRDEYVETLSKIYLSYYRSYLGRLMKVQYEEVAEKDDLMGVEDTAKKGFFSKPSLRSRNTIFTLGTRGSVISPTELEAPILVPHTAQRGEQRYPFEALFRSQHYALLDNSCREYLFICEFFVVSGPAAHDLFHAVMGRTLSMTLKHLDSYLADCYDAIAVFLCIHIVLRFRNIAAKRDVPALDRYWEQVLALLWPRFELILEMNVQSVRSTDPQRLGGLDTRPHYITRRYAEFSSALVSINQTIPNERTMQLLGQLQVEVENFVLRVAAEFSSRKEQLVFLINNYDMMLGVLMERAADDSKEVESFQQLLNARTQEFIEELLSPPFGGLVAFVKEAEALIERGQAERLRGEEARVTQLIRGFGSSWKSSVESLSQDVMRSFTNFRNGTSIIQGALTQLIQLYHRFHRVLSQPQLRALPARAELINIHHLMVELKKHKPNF
B6: E3 ubiquitin-protein ligase LNX (Homo sapiens), Q8TBB1 (parent)
chain: MNQPESANDPEPLCAVCGQAHSLEENHFYSYPEEVDDDLICHICLQALLDPLDTPCGHTYCTLCLTNFLVEKDFCPMDRKPLVLQHCKKSSILVNKLLNKLLVTCPFREHCTQVLQRCDLEHHFQTSCKGASHYGLTKDRKRRSQDGCPDGCASLTATAPSPEVSAAATISLMTDEPGLDNPAYVSSAEDGQPAISPVDSGRSNRTRARPFERSTIRSRSFKKINRALSVLRRTKSGSAVANHADQGRENSENTTAPEVFPRLYHLIPDGEITSIKINRVDPSESLSIRLVGGSETPLVHIIIQHIYRDGVIARDGRLLPGDIILKVNGMDISNVPHNYAVRLLRQPCQVLWLTVMREQKFRSRNNGQAPDAYRPRDDSFHVILNKSSPEEQLGIKLVRKVDEPGVFIFNVLDGGVAYRHGQLEENDRVLAINGHDLRYGSPESAAHLIQASERRVHLVVSRQVRQRSPDIFQEAGWNSNGSWSPGPGERSNTPKPLHPTITCHEKVVNIQKDPGESLGMTVAGGASHREWDLPIYVISVEPGGVISRDGRIKTGDILLNVDGVELTEVSRSEAVALLKRTSSSIVLKALEVKEYEPQEDCSSPAALDSNHNMAPPSDWSPSWVMWLELPRCLYNCKDIVLRRNTAGSLGFCIVGGYEEYNGNKPFFIKSIVEGTPAYNDGRIRCGDILLAVNGRSTSGMIHACLARLLKELKGRITLTIVSWPGTFL
partner: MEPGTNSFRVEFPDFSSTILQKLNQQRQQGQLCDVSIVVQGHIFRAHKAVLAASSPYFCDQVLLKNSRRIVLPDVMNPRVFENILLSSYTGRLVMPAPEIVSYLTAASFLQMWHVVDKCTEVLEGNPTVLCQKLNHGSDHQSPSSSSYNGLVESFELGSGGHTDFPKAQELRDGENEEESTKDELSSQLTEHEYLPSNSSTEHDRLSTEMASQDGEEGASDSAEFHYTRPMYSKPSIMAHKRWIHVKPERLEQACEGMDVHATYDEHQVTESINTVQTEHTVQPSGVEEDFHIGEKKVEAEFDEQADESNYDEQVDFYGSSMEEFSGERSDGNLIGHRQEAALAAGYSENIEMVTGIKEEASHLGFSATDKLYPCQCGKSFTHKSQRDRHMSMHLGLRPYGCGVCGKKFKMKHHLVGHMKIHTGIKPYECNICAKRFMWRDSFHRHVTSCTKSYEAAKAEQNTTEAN

Variants of: B1
Conditions: with fate1_human FATE1, Q969F0

Variant | effect of a mutation on the interaction
A115P | with no effect

Variants of: B2
Conditions: with rbm4b_human RBM4B

Variant | effect of a mutation on the interaction
M1032R | disrupting interaction strength

Variants of: B3
Conditions: with ub2e2_human UBE2E2, Q96LR5
Sequence of ub2e2_human UBE2E2, Q96LR5 (Q96LR5 whole entry): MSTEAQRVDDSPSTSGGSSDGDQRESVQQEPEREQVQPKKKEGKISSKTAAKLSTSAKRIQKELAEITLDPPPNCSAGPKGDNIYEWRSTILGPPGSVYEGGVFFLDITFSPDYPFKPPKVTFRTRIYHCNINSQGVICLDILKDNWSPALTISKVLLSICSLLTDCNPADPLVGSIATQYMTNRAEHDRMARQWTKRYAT

Variant | effect of a mutation on the interaction
M1032R | disrupting interaction strength

Variants of: B3
Conditions: with znf24_human ZNF24, P17028
Sequence of znf24_human ZNF24, P17028 (P17028 whole entry): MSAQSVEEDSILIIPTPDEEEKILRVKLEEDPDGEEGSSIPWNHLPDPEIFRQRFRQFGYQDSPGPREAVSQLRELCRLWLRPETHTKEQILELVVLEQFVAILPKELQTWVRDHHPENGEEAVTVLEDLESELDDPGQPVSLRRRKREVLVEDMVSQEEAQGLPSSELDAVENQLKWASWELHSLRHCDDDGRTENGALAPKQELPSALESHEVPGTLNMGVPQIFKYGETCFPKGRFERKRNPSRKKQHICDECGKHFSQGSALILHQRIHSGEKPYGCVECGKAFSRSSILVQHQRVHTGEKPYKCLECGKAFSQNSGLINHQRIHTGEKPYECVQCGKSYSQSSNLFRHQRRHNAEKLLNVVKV

Variant | effect of a mutation on the interaction
M1032R | disrupting interaction strength

Variants of: B3
Conditions: with hnrl1_human HNRNPUL1, Q9BUJ2
Sequence of hnrl1_human HNRNPUL1, Q9BUJ2 (Q9BUJ2 whole entry): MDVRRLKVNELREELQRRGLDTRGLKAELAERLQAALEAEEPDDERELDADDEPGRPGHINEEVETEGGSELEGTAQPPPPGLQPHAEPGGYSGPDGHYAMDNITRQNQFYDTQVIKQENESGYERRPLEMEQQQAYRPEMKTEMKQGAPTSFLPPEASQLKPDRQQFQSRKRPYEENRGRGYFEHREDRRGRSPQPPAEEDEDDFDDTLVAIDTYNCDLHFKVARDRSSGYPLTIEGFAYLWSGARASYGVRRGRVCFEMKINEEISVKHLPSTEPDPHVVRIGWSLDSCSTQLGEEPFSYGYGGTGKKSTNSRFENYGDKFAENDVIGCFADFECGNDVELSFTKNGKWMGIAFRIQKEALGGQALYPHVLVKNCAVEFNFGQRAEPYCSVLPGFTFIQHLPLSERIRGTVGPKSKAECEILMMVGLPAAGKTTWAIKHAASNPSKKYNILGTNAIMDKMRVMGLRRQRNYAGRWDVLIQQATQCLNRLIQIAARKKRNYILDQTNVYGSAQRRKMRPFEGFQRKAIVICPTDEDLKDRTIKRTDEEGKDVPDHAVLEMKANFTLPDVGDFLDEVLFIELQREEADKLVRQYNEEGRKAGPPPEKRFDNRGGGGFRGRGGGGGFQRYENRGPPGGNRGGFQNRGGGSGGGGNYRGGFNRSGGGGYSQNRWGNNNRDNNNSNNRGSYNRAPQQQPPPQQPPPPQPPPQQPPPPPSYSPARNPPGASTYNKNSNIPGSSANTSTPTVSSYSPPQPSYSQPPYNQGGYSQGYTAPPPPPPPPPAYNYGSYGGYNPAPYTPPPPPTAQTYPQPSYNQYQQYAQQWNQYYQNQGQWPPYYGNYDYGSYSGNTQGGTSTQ

Variant | effect of a mutation on the interaction
M1032R | with no effect

Variants of: B3
Conditions: with zch10_human ZCCHC10, Q8TBK6
Sequence of zch10_human ZCCHC10, Q8TBK6 (Q8TBK6 whole entry): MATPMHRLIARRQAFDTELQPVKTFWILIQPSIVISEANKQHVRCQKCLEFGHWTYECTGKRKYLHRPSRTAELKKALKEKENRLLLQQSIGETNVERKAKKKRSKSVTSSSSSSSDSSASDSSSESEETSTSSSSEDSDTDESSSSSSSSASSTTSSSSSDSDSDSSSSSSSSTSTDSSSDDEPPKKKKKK

Variant | effect of a mutation on the interaction
M1032R | disrupting interaction strength

Variants of: B4
Conditions: with trip6_human TRIP6, Q15654

Variant | effect of a mutation on the interaction
R373C | with no effect

Variants of: B4
Conditions: with trip6_human TRIP6, Q15654
Remark: another data set of the same source

Variant | effect of a mutation on the interaction
E202K | with no effect

Variants of: B5
Conditions: with vps52_human VPS52, Q8N1B4

Variant | effect of a mutation on the interaction
I343F | with no effect

Variants of: B6
Conditions: with zbt43_human ZBTB43, O43298

Variant | effect of a mutation on the interaction
E295K | disrupting interaction strength
